Results as given in IntAct's records for PubMed 16461343.

B1: Tyrosine-protein phosphatase non-receptor type 22 (Homo sapiens), Q9Y2R2 (parent)
chain: MDQREILQKFLDEAQSKKITKEEFANEFLKLKRQSTKYKADKTYPTTVAEKPKNIKKNRYKDILPYDYSRVELSLITSDEDSSYINANFIKGVYGPKAYIATQGPLSTTLLDFWRMIWEYSVLIIVMACMEYEMGKKKCERYWAEPGEMQLEFGPFSVSCEAEKRKSDYIIRTLKVKFNSETRTIYQFHYKNWPDHDVPSSIDPILELIWDVRCYQEDDSVPICIHCSAGCGRTGVICAIDYTWMLLKDGIIPENFSVFSLIREMRTQRPSLVQTQEQYELVYNAVLELFKRQMDVIRDKHSGTESQAKHCIPEKNHTLQADSYSPNLPKSTTKAAKMMNQQRTKMEIKESSSFDFRTSEISAKEELVLHPAKSSTSFDFLELNYSFDKNADTTMKWQTKAFPIVGEPLQKHQSLDLGSLLFEGCSNSKPVNAAGRYFNSKVPITRTKSTPFELIQQRETKEVDSKENFSYLESQPHDSCFVEMQAQKVMHVSSAELNYSLPYDSKHQIRNASNVKHHDSSALGVYSYIPLVENPYFSSWPPSGTSSKMSLDLPEKQDGTVFPSSLLPTSSTSLFSYYNSHDSLSLNSPTNISSLLNQESAVLATAPRIDDEIPPPLPVRTPESFIVVEEAGEFSPNVPKSLSSAVKVKIGTSLEWGGTSEPKKFDDSVILRPSKSVKLRSPKSELHQDRSSPPPPLPERTLESFFLADEDCMQAQSIETYSTSYPDTMENSTSSKQTLKTPGKSFTRSKSLKILRNMKKSICNSCPPNKPAESVQSNNSSSFLNFGFANRFSKPKGPRNPPPTWNI

Tests used:
lck_human LCK, P06239 = variants of: B1; conditions: with lck_human LCK
Sequence of lck_human LCK, P06239 (P06239 whole entry, looked up): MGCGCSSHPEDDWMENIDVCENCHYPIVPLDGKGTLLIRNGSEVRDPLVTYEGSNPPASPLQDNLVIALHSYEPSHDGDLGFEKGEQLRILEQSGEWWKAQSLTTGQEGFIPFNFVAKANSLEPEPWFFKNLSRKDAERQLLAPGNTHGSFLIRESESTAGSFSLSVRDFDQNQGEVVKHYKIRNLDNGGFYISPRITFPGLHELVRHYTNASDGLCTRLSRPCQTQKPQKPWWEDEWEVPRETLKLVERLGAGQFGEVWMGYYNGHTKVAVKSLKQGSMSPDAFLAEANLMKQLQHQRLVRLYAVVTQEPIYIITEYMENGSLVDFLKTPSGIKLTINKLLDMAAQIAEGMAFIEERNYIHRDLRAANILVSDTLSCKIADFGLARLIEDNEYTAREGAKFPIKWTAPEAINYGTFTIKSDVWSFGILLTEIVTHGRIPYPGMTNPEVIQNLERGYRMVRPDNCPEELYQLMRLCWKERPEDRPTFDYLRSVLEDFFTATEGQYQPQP

[1] = variants of: B1; conditions: with zap70_human ZAP70, P43403
Sequence of zap70_human ZAP70, P43403 (P43403 whole entry): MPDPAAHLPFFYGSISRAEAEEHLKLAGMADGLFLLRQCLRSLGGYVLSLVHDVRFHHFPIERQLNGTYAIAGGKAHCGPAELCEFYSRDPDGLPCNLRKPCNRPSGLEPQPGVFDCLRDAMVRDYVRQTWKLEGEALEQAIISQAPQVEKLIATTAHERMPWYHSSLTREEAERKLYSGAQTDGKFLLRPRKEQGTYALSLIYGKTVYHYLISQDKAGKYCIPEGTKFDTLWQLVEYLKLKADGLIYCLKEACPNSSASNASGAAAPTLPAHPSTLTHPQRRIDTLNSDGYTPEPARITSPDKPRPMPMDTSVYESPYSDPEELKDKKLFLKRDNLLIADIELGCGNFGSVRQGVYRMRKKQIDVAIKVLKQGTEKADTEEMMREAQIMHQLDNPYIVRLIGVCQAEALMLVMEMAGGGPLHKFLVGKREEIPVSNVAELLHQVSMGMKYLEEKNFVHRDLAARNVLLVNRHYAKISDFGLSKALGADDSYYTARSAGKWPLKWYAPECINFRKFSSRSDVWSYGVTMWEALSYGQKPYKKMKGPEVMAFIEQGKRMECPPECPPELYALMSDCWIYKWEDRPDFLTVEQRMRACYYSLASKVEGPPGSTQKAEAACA

cd3z_human CD247, P20963 = variants of: B1; conditions: with cd3z_human CD247, P20963
Sequence of cd3z_human CD247, P20963 (P20963 whole entry): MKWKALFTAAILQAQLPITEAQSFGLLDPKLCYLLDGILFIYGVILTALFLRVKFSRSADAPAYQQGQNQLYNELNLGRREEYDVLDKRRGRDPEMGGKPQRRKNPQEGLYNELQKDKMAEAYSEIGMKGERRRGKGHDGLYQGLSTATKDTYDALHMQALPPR

Measured: effect of a mutation on the interaction

D195A
increasing interaction: all assays above

C227S
increasing interaction: all assays above
